From patent US20260242478A1 (published 2026)
Where no end group is shown, it is not given here.

B1: Phage-703 (peptide)
peptide: YCEGHSLEYMGKCL
modifications: cysteine pairing not given here; also: displayed on phage by fusion to pIII, pIII and linker sequence not given here
B2: Phage-697 (peptide)
peptide: YCDGHSPMYIGKCL
modifications: cysteine pairing not given here; also: displayed on phage by fusion to pIII, pIII and linker sequence not given here
B3: Phage-707 (peptide)
peptide: YCDGHSHEYMEKCL
modifications: cysteine pairing not given here; also: displayed on phage by fusion to pIII, pIII and linker sequence not given here
B4: Phage-705 (peptide)
peptide: YCDGHMGVYYWKCL
modifications: cysteine pairing not given here; also: displayed on phage by fusion to pIII, pIII and linker sequence not given here
B5: Phage-706 (peptide)
peptide: YCDGHEAQYMSKCL
modifications: cysteine pairing not given here; also: displayed on phage by fusion to pIII, pIII and linker sequence not given here
B6: Phage-696 (peptide)
peptide: YCEGHAPQYIAKCL
modifications: cysteine pairing not given here; also: displayed on phage by fusion to pIII, pIII and linker sequence not given here
B7: Phage-702 (peptide)
peptide: YCEGHSIQYMAKCL
modifications: cysteine pairing not given here; also: displayed on phage by fusion to pIII, pIII and linker sequence not given here
B8: Phage-699 (peptide)
peptide: YCEGHRPEYMQKCL
modifications: cysteine pairing not given here; also: displayed on phage by fusion to pIII, pIII and linker sequence not given here
B9: Phage-704 (peptide)
peptide: YCDGHAPEYMEKCL
modifications: cysteine pairing not given here; also: displayed on phage by fusion to pIII, pIII and linker sequence not given here
B10: Phage-708 (peptide)
peptide: YCQGHLPEYMSKCL
modifications: cysteine pairing not given here; also: displayed on phage by fusion to pIII, pIII and linker sequence not given here
B11: Phage-698 (peptide)
peptide: YCAGHLPEYMMKCL
modifications: cysteine pairing not given here; also: displayed on phage by fusion to pIII, pIII and linker sequence not given here
B12: Phage-701 (peptide)
peptide: YCEGHSPEYMTKCL
modifications: cysteine pairing not given here; also: displayed on phage by fusion to pIII, pIII and linker sequence not given here
B13: Phage-700 (peptide)
peptide: YCEGHAREHMAKCL
modifications: cysteine pairing not given here; also: displayed on phage by fusion to pIII, pIII and linker sequence not given here

Columns and labels:
[1] = target: Anti-CD28 Fab (SEQ ID NOs: 696, 697); assay: phage binding ELISA; captured anti-CD28 Fab pre-incubated with CD28 antigen as competitor, anti-M13 HRP detection
Target sequence in this assay (VH, as listed by the source, chain 1 of 2): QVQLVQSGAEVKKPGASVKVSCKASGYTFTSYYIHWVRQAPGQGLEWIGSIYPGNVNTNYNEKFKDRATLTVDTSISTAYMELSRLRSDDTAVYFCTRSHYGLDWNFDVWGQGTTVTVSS
Target sequence in this assay (VL, as listed by the source, chain 2 of 2): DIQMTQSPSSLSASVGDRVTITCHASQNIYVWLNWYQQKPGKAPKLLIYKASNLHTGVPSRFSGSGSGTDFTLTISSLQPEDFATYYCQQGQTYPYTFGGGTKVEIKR

[2] = target: Anti-CD28 Fab (SEQ ID NOs: 696, 697); assay: phage binding ELISA; biotinylated anti-CD28 Fab on neutravidin plate, clonal phage supernatant, anti-M13 HRP detection
Target sequence in this assay (VH, as listed by the source, chain 1 of 2): as the sequence (VH, as listed by the source, chain 1 of 2) above
Target sequence in this assay (VL, as listed by the source, chain 2 of 2): as the sequence (VL, as listed by the source, chain 2 of 2) above

[3] = target: Anti-CD28 Fab (SEQ ID NOs: 696, 697); assay: phage binding ELISA on anti-CD28 Fab; wells first incubated with CD28 antigen as competitor
Target sequence in this assay (VH, as listed by the source, chain 1 of 2): as the sequence (VH, as listed by the source, chain 1 of 2) above
Target sequence in this assay (VL, as listed by the source, chain 2 of 2): as the sequence (VL, as listed by the source, chain 2 of 2) above
Procedure: (§1) After panning, phage infected bacteria were plated out and colonies picked into 96 well blocks. Clonal phage was then amplified and separated from bacterial cells via centrifugation.
(§2) Clonal phage were harvested as crude supematants and screened via standard ELISAs. […] Prior to the addition of clonal phage, wells were incubated with blocking buffer and CD28 antigen or blocking buffer alone. Without washing or aspirating, clonal phage supematants were then added to the wells and incubated for a short time. Wells were then washed followed by detection of bound phage using a horse radish conjugated anti-M13 antibody. Clonal phage of interest were then sent for sequence analysis.

[4] = target: Anti-CD28 Fab (SEQ ID NOs: 696, 697); assay: phage binding ELISA; biotinylated anti-CD28 Fab on neutravidin plate, clonal phage supernatant, anti-M13 HRP detection; remark: listed apart in the source
Target sequence in this assay (VH, as listed by the source, chain 1 of 2): as the sequence (VH, as listed by the source, chain 1 of 2) above
Target sequence in this assay (VL, as listed by the source, chain 2 of 2): as the sequence (VL, as listed by the source, chain 2 of 2) above

[5] = target: T1, Anti-CD28 Fab (SEQ ID NOs: 696, 697); assay: phage ELISA; biotinylated anti-CD28 Fab on neutravidin plate, clonal phage supernatant, anti-M13 HRP detection;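 note: crude supernatants of single phage clones picked after panning were screened for binding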
T1 construct: Biotinylated and captured on neutravidin coated plates in the phage ELISA
T1 sequence (VH, as listed by the source, chain 1 of 2): as the sequence (VH, as listed by the source, chain 1 of 2) above
T1 sequence (VL, as listed by the source, chain 2 of 2): as the sequence (VL, as listed by the source, chain 2 of 2) above

[6] = target: T1, Anti-CD28 Fab (SEQ ID NOs: 696, 697); assay: phage ELISA on plate-bound anti-CD28 Fab, wells pre-incubated with CD28 antigen as competitor
Procedure: as §1, §2

[7] = target: T2, Anti-CD28 Fab (SEQ ID NOs: 696, 697); assay: phage binding ELISA on captured anti-CD28 Fab; competitor: CD28 antigen pre-incubated in the wells
T2 construct: In the phage ELISA the Fab was biotinylated and captured on neutravidin coated plates
T2 sequence (VH, as listed by the source, chain 1 of 2): as the sequence (VH, as listed by the source, chain 1 of 2) above
T2 sequence (VL, as listed by the source, chain 2 of 2): as the sequence (VL, as listed by the source, chain 2 of 2) above
Procedure: as §1, §2

[8] = target: T2, Anti-CD28 Fab (SEQ ID NOs: 696, 697); assay: phage binding ELISA; biotinylated anti-CD28 Fab on neutravidin plate, bound phage detected with anti-M13-HRP
Procedure: as §1, §2

Binder | Anti-CD28 Fab signal in the presence of CD28 [1] | Anti-CD28 Fab (SEQ ID NOs: 696, 697) signal [2] | Anti-CD28 Fab signal in the presence of CD28 (phage binding ELISA) [7] | Anti-CD28 Fab signal (phage binding ELISA) [8] | also measured
B1 | 0.09 | 2.02 | – | – | –
YCDGHSALYMWKCL [Phage-726] | – | – | – | – | Anti-CD28 Fab signal in the presence of CD28 [3]: 0.08; Anti-CD28 Fab signal (phage binding ELISA) [4]: 1.96
B2 | 0.07 | 2.03 | – | – | –
YCAGHSVEYMAKCL [Phage-725] | – | – | – | – | Anti-CD28 Fab signal in the presence of CD28 [3]: 0.08; Anti-CD28 Fab signal (phage binding ELISA) [4]: 1.96
YCDGHAIEYMQKCL (Clonal phage of the Peptide-87 library) [Phage-679] | – | – | – | – | Anti-CD28 Fab signal (phage binding ELISA) [5]: 2.05; Anti-CD28 Fab signal in the presence of CD28 (phage binding ELISA) [6]: 0.07
B3 | 0.06 | 2.01 | – | – | –
B4 | 0.09 | 2.01 | – | – | –
B5 | 0.09 | 2.01 | – | – | –
YCQGHMPEYMDKCL (Clonal phage of the Peptide-87 library) [Phage-681] | – | – | – | – | Anti-CD28 Fab signal (phage binding ELISA) [5]: 2.05; Anti-CD28 Fab signal in the presence of CD28 (phage binding ELISA) [6]: 0.07
YCEGHAIQYMSKCL [Phage-689] | – | – | 0.06 | 2.04 | –
B6 | 0.08 | 2.03 | – | – | –
YCEGHLPIYMDKCL (Clonal phage of the Peptide-87 library) [Phage-678] | – | – | – | – | Anti-CD28 Fab signal (phage binding ELISA) [5]: 2.06; Anti-CD28 Fab signal in the presence of CD28 (phage binding ELISA) [6]: 0.08
YCAGHIEEYMWKCL (Clonal phage of the Peptide-87 library) [Phage-680] | – | – | – | – | Anti-CD28 Fab signal (phage binding ELISA) [5]: 2.05; Anti-CD28 Fab signal in the presence of CD28 (phage binding ELISA) [6]: 0.06
YCDGHLPEYLGKCL [Phage-724] | – | – | – | – | Anti-CD28 Fab signal in the presence of CD28 [3]: 0.08; Anti-CD28 Fab signal (phage binding ELISA) [4]: 1.96
YCDGHLEQYRAKCL [Phage-723] | – | – | – | – | Anti-CD28 Fab signal in the presence of CD28 [3]: 0.08; Anti-CD28 Fab signal (phage binding ELISA) [4]: 1.96
B7 | 0.06 | 2.02 | – | – | –
YCDGHLIEYMEKCL [Phage-688] | – | – | 0.06 | 2.04 | –
B8 | 0.11 | 2.03 | – | – | –

Binder | Anti-CD28 Fab signal in the presence of CD28 [1] | Anti-CD28 Fab (SEQ ID NOs: 696, 697) signal [2] | Anti-CD28 Fab signal in the presence of CD28 (phage binding ELISA) [7] | Anti-CD28 Fab signal (phage binding ELISA) [8] | also measured
YCDGHLPEYQMKCL [Phage-686] | – | – | 0.08 | 2.05 | –
B9 | 0.09 | 2.01 | – | – | –
YCDGHSSEYMWKCL [Phage-694] | – | – | 0.06 | 2.03 | –
YCEGHAPQHMDKCL [Phage-690] | – | – | 0.08 | 2.04 | –
B10 | 0.06 | 2.01 | – | – | –
B11 | 0.11 | 2.03 | – | – | –
YCDGHAPEYVMKCL (Clonal phage of the Peptide-87 library) [Phage-682] | – | – | – | – | Anti-CD28 Fab signal (phage binding ELISA) [5]: 2.05; Anti-CD28 Fab signal in the presence of CD28 (phage binding ELISA) [6]: 0.1
YCEGHAPEYMYKCL [Phage-685] | – | – | 0.07 | 2.05 | –
B12 | 0.08 | 2.02 | – | – | –
YCDGHSAQYMHKCL [Phage-684] | – | – | 0.06 | 2.05 | –
YCLGHAPQYIQKCL [Phage-693] | – | – | 0.14 | 2.04 | –
YCSGHLPEYMSKCL [Phage-695] | – | – | 0.09 | 2.03 | –
YCDGHFREYMQKCL [Phage-692] | – | – | 0.06 | 2.04 | –
YCEGHSPQYMSKCL [Phage-691] | – | – | 0.07 | 2.04 | –
YCDGHASEYMMKCL [Phage-687] | – | – | 0.06 | 2.05 | –
B13 | 0.08 | 2.02 | – | – | –
YCDGHVGEYMQKCL [Phage-683] | – | – | 0.08 | 2.05 | –
